Reference: patent publication US20020151473A1
pKd: −log10 of the molar value.

Molecular target: IgG
Assay: microcalorimetry and surface plasmon resonance (same value stated for both)

cyclized (locked helix) peptide FNM(5)QQRRFY(6)ALH
pKd: 4.00
